Values quoted from earlier work in article PMC10941800.
Read-outs that look alike come from different tables or passages of the source.

How the values were obtained:
Conditions in all cases: cited from earlier work
[1] = molecular target: measles virus hemagglutinin (Measles morbillivirus) (UniProt P08362)
[2] = molecular target: measles virus hemagglutinin (Measles morbillivirus) (UniProt P08362); remark: listed apart in the source
[3] = molecular target: measles virus hemagglutinin (Measles morbillivirus) (UniProt P08362); remark: listed apart in the source

Sequence of UniProt P08362 (P08362 59-617): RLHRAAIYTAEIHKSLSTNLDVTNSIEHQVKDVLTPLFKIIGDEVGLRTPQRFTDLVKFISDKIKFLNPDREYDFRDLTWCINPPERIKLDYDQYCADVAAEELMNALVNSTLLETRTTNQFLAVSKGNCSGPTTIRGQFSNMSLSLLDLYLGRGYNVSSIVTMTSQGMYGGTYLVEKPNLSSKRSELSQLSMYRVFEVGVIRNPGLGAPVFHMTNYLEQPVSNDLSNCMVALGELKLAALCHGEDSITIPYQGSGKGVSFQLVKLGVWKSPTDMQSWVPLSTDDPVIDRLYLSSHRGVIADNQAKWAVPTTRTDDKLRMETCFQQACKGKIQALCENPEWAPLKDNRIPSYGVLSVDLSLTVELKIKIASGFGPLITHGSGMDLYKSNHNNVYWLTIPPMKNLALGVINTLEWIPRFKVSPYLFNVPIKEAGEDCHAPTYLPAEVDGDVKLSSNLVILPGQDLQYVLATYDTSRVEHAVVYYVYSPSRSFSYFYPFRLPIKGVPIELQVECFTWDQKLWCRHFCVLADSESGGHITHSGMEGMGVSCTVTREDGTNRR

CD46 (from UniProt P15529)
Kd [1]: 200 nM

Nectin-4 (from UniProt Q96NY8)
Kd [2]: 670 nM

SLAM (from UniProt Q13291)
Kd [3]: 170 nM
